Legend:
[1] = target: bacteriophage displaying the DO11.10 scTCR/gene VIII fusion protein (vector pKC51) (murine; fd tet bacteriophage); assay: phage panning on biotin antibody on neutrAvidin wells, phage diluted 1:50,000 in irrelevant phage
[2] = target: single-chain MHC class II I-A^d complex with OVA 323-339 peptide, immobilized (chicken; murine) (UniProt P01012); assay: cell-based or functional assay

Sequence of bacteriophage displaying the DO11.10 scTCR/gene VIII fusion protein (vector pKC51) (murine; fd tet bacteriophage) (main, as listed by the source): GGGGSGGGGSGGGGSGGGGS

anti-V-β8.2 monoclonal antibody MR5-2 (PharMingen)
fold enrichment after a single round of panning [1]: 5000 fold

bacteriophage displaying the DO11.10 scTCR/gene VIII fusion protein (vector pKC51)
level of IL-2 inhibition, DO11.10 group against gD12 hybridoma group [2]: 8 to 10 fold

hamster anti-mouse αβ TCR antibody H57-597 (ATCC HB-218)
fold enrichment after a single round of panning [1]: 5000 fold
